Target: human FGFR1c together with human beta-Klotho (KLB), stably expressed on CHO Flp-In cells (human) (UniProt P11362)
Test: cell-based or functional assay

human FGFR1c together with human beta-Klotho (KLB), stably expressed on CHO Flp-In cells (human), sequence (P11362 22-822, chain 1 of 2): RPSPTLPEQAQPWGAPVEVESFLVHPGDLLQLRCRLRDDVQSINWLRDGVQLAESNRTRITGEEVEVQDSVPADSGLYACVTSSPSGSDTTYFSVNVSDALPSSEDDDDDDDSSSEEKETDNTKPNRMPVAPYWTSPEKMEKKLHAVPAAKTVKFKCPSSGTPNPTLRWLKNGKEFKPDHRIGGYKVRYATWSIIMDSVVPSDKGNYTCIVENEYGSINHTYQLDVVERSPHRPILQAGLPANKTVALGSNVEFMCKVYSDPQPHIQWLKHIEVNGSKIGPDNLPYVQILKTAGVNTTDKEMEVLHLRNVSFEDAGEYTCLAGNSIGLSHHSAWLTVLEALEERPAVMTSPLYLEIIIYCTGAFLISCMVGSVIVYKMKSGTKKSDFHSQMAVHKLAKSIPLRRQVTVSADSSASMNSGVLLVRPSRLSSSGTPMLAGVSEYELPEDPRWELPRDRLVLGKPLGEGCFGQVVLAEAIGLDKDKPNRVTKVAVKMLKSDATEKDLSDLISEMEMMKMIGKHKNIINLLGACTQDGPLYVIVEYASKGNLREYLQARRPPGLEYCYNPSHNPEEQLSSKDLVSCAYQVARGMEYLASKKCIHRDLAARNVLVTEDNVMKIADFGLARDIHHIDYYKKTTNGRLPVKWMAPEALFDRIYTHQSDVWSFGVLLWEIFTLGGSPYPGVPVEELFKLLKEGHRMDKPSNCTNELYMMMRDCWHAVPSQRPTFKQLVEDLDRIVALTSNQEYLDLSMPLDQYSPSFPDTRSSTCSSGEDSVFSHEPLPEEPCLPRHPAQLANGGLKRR
human FGFR1c together with human beta-Klotho (KLB), stably expressed on CHO Flp-In cells (human), sequence (Q86Z14 whole entry, chain 2 of 2, further chain): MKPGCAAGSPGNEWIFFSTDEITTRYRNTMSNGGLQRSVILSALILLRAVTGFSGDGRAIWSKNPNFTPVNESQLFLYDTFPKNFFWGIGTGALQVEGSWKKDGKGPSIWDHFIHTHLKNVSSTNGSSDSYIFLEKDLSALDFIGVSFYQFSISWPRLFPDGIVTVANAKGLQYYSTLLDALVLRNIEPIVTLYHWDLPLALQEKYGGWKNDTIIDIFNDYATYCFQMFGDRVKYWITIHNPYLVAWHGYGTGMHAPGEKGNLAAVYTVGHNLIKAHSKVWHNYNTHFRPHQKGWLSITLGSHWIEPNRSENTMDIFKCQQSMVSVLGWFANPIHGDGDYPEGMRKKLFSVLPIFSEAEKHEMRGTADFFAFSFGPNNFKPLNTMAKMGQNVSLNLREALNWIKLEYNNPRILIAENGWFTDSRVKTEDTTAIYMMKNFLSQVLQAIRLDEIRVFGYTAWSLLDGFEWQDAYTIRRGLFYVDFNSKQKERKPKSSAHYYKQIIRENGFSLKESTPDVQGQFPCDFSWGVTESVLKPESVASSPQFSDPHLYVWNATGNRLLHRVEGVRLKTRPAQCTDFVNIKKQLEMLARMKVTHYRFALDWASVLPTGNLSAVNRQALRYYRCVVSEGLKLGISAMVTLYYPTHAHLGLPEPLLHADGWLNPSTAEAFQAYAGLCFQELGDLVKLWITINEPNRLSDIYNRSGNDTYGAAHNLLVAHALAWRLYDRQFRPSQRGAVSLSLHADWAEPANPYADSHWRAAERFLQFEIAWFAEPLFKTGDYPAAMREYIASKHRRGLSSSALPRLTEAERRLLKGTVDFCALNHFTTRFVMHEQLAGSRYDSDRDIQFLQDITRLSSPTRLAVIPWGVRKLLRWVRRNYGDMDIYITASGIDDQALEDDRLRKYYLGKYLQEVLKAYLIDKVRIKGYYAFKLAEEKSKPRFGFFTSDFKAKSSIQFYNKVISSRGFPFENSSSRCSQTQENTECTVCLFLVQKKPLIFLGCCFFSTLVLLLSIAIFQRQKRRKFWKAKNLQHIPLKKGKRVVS
FGF21 G189 deleted (SEQ ID NO: 55), sequence (Q9NSA1 other isoform, or with tags, fused parts or gaps): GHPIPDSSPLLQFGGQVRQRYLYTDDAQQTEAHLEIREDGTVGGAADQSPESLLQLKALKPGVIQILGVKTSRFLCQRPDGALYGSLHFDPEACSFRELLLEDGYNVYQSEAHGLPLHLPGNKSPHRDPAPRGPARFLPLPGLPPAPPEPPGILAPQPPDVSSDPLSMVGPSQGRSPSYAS
FGF21 M196 deleted, S201 deleted (SEQ ID NO: 70), sequence (Q9NSA1 other isoform, or with tags, fused parts or gaps): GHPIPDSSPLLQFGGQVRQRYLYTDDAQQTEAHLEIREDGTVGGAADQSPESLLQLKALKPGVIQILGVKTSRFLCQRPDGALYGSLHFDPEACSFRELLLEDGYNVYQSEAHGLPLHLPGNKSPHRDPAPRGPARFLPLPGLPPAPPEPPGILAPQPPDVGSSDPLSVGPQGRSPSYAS
FGF21 G198 deleted (SEQ ID NO: 29), sequence (Q9NSA1 other isoform, or with tags, fused parts or gaps): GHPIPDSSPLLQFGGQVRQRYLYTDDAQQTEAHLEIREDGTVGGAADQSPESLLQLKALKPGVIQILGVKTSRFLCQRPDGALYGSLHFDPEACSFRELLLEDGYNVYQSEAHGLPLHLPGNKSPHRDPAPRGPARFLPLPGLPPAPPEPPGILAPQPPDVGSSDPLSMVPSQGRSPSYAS
FGF21 Y207 deleted (SEQ ID NO: 68), sequence (Q9NSA1 other isoform, or with tags, fused parts or gaps): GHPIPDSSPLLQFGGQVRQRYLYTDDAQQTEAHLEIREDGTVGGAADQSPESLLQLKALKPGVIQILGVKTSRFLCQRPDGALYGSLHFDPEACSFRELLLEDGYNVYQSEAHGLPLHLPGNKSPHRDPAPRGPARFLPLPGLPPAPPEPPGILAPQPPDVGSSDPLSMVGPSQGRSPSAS
FGF21 P185-P186 deleted (SEQ ID NO: 59), sequence (Q9NSA1 other isoform, or with tags, fused parts or gaps): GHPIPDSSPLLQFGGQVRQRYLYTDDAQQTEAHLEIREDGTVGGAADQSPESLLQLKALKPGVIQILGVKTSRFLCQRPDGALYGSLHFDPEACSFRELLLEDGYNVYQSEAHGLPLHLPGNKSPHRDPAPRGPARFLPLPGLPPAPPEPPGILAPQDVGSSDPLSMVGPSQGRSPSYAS

Substance | pERK ICW EC50 [nmol/L]
FGF21 P185-P186 deleted (SEQ ID NO: 59) (from UniProt Q9NSA1 29-209) (ligand) | 21.1
FGF21 M196V, V197M (SEQ ID NO: 13) (from UniProt Q9NSA1 29-209) (ligand) | 26.7
FGF21 Q82C, L94C (SEQ ID NO: 122) (from UniProt Q9NSA1 29-209) (ligand) | 5.57
FGF21 Q55C, N149C, P199 deleted (SEQ ID NO: 46) (from UniProt Q9NSA1 29-209) (ligand) | 1.7
FGF21 A72C, S79C, G108C, L142C (SEQ ID NO: 89) (from UniProt Q9NSA1 29-209) (ligand) | 8.24
FGF21 G198 deleted (SEQ ID NO: 29) (from UniProt Q9NSA1 29-209) (ligand) | 41.6
FGF21 H145C, P161C (SEQ ID NO: 120) (from UniProt Q9NSA1 29-209) (ligand) | 6.51
FGF21 Y207 deleted (SEQ ID NO: 68) (from UniProt Q9NSA1 29-206) (ligand) | 7.14
FGF21 A59C, G71C (SEQ ID NO: 77) (from UniProt Q9NSA1 29-209) (ligand) | 2.15
FGF21 G189 deleted (SEQ ID NO: 55) (from UniProt Q9NSA1 29-209) (ligand) | 76.2
FGF21 M196 deleted, S201 deleted (SEQ ID NO: 70) (from UniProt Q9NSA1 29-209) (ligand) | 165
FGF21 A59C, G71C, G198Y (SEQ ID NO: 37) (from UniProt Q9NSA1 29-209) (ligand) | 0.75
FGF21 A120C, A139C (SEQ ID NO: 114) (from UniProt Q9NSA1 29-209) (ligand) | 22

The remaining lines, values ahead:

pERK ICW EC50 [nmol/L] | Substance
1.15 | FGF21 G198R (SEQ ID NO: 18) (from UniProt Q9NSA1 29-209) (ligand)
2.1 | FGF21 G198 deleted, P199F (SEQ ID NO: 31) (from UniProt Q9NSA1 29-209) (ligand)
114 | FGF21 Q55G, Q56C, L146C, P147-R159 deleted and replaced by GSGS (SEQ ID NO: 97) (from UniProt Q9NSA1 29-209) (ligand)
3.87 | FGF21 S137C, H140C (SEQ ID NO: 84) (from UniProt Q9NSA1 29-209) (ligand)
10.8 | FGF21 S195C, S200C (SEQ ID NO: 8) (from UniProt Q9NSA1 29-209) (ligand)
22.6 | FGF21 R124C, Q136C (SEQ ID NO: 115) (from UniProt Q9NSA1 29-209) (ligand)

From US20250171512A1
